# Source: the nanobody polyreactivity screen of Harvey et al. (2022)
# Experiment: yeast display, Sf9 membrane polyspecificity reagent, FACS + sequencing; frameworks hold sequencing errors
# Outline: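 Nanobodies from a synthetic yeast display library (Saccharomyces cerevisiae BJ5465), induced 36–48 hours with galactose, were stained 1 hour at 4 °C with 10% biotinylated, detergent-solubilized Sf9 membrane reagent, enriched on streptavidin microbeads, then FACS-sorted. Anti-HA (expression) and streptavidin (reagent binding) fluorescence set low and high (top ~1%) gates. Polyreactivity labels come from the gate of origin. Genes were colony-PCR amplified, MiSeq 2 × 250 sequenced and filtered by CDR length.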
row,Sequence,polyreactivity (PSR sort gate)
1,QVQLEESGGGLVQAGGSLRLSCAASGFILCDYAMGWYRQATGKERELVAGINYRGGSTHYADSVKGRFTISRDIAKNTVYLQMNSLKPEDTAVYYCSKRRQSYPYKTSTWYSHYSWGQGTQVTVSS,high polyreactivity
2,QVQLEESGGGLVQAGGSLRLSCAASGFILSGNTMGWYRPAPGKERELVAGITYTGGSTYYADSVKGRFTISRDNAKNTVYLQMNSLKPEDTAVYYCAVDVAGGEGMDYWGHGTQVTVSS,low polyreactivity
3,QVQLEESGGGLVQAGGSLRLSCAASGFIYAHYAMGWYRQAPGKERELVAAISSRGGSTYYADSVKGRFTISRDYAKNPVYLQINSLKPEDTAVYYCAKARHRPARGYEYWGLGTQVTVSS,high polyreactivity
4,QVQLEESGGGLVQAGGSLRLSCAASGFTFAYYAMGWYSQAPGKERELVAAISRSGGRTNYADSVKGRFTISRDNAKNTVYLQMNSLKPEETAVYYCNKQQTPRYWWSPYGGYDYWGQGTQGTVSS,high polyreactivity
5,QVQLEESGGGLVQAGGSLRLSCAASGFTFRAYAMGWYRQAPGKERELVAANTYSGDRTYYADSVKGRFTITRDNAKKTVYLQMNSLKPEDTAVYYCAAYGAKVNRPGYYYWGQGTQVTVSS,high polyreactivity
6,QVQLEESGGGLVQAGGSLRLSCAASGGIFGWYTMGWNRQAPGKERELVAAINFSGSRTYYADSVKGRFTISRHNAKNTVYLQMNSLKPEDTAVYYCNAVYHQFRVEYWGQGTQVTVSS,high polyreactivity
7,QVQLEESGGGLVQAGGSLRLSCAASGGIFPAYAMGWYRQAPGKERELVASISANGGRTYYADSVKGRFTISRDNAKNTVYLQMNSLKPEDTAVYYCNASSLSGSWRFYYWGQGTQVTVSS,high polyreactivity
8,QVQLEESGGGLVQAGGSLRLSCAASGITFEAYAMGWYRQAPGKERELVAAIRSSGTSTYYADSVMGRFTISRDNAKNTVYLQMNSLKPEDTAVYYCNRARSSSRYDYWGQGTQVTVSS,low polyreactivity
9,QVQLEESGGGLVQAGGSLRLSCAASGITFVTYAMGWYRQAPGKERELVAAISRSGGRTYYADSVKGRFTISRDNAKNTVYLQMNSLKPEDTAVYYCAAERKNKYDYWGQGTQVTVSS,high polyreactivity
10,QVQLEESGGGLVQAGGSLRLSCAASGITFYYNDMGWYRQAPGKERELVAAISSGGTTNYADSVKGRFTISRDNAKNTFYLAMNSLKPEDTAVYYCATGYAEPEWDPFVSDYDYWGQGTQVTVSS,low polyreactivity
11,QVQLEESGGGLVQAGGSLRLSCAASGITIRIYAKGCYRQAPGKERELVAGISSSGSTNYADSVKGRFTISRDNAKNTVYLQMNSLKPEDTAVYYCAADAFYIFDYWGQGTQVTVSS,high polyreactivity
12,QVQLEESGGGLVQAGGSLRLSCAASGLIFVDNAMGGSRQATGKERALVASIDSGGSTNYADSVKGRFTISRDNAKNTFYLQMNSLKPEDTAVYYCSADWIYAPWYYQESVEYYYWGQGTQVTVSS,low polyreactivity
13,QVQLEESGGGLVQAGGSLRLSCAASGLIFWAYAMGWYRQAPGKDTELVAAINWRGGSTYYADSVKGRFTISRDNAKNTVYLQMNSLKPEDTAVYFCAGDSSYDEYDYWGQGTQVTVSS,low polyreactivity
14,QVQLEESGGGLVQAGGSLRLSCAASGMILTYYAMAWNRQAPGKERELVAGISSGTNTNYADSVKWRFTISRDNAKNTVYLQMNSLKPEDTAVYYCANTRGYEFVAYGYWGQGTQVNVSS,low polyreactivity
15,QVQLEESGGGLVQAGGSLRLSCAASGNIFYYYAMGWYRQAPGKEREVVATITSGGSTNYADSVKGRFTISRDNAKNTVYLQMNSLKPEDTAVYYCAADRRRTYYWLSSYFEGYYWGQGTQVTVSS,low polyreactivity
16,QVQLEESGGGLVQAGGSLRLSCAASGNTFYLYAMGWYRQAPGKERELVASITGGTRTNYADSVKGRFTISRDNAKNTVYLQMNSLKPEDTAVYYCAKTYPRTVGKYLSRGGYYYWGQGTQVTVSS,high polyreactivity
17,QVQLEESGGGLVQAGGSLRLSCAASGPIFVGYAMGWSRQAPGKEREFLAAISRDGDNTFYADSVKGRFTISRDYAKNTVYLQMYSLKPEDTAVYYCAVDYWVWYGCAYAYDYYWGQGTQVSVSS,low polyreactivity
18,QVQLEESGGGLVQAGGSLRLSCAASGRIFDDNAMGWYRQAPGKERELVAAISSGDSTKYADSVKGRFTISRDNAKNTVYLQMNSLKPEDTAVYYCAAERNHGLVGSESVGRNDYWGQGTQVTVSS,low polyreactivity
19,QVQLEESGGGLVQAGGSLRLSCAASGRIFGYYAMGWYRKAPGKERELVAAIRRSGASTYYADSVKGRFTISRDNAENTVYLQMYSLKPVDTAVYYCSQAGYSPVYGYWGQGTQVTVSS,high polyreactivity
20,QVQLEESGGGLVQAGGSLRLSCAASGRIFGYYAMGWYRQAPGKERELVATITFGGGSTYYADSVKGRFTISRDNAKNTVYLQMNSLKPEDTAVYYCAADSGYLGIYGDEYSWGQGTQVTVSS,low polyreactivity

row,Sequence,polyreactivity (PSR sort gate)
1,QVQLEESGGGLVQAGGSLRLSCAASGRIFIRNAMGWYRQAPGKERELVAAISYSGGSTYYADSVKGRFTISRDNAKNTVYLQMNSLKPEDTAVYYCAAGSIRGTSFYYWGQGTQVTVSS,high polyreactivity
2,QVQLEESGGGLVQAGGSLRLSCAASGRIFQYYVRGWYRQAPGKERELVAAITRRGTNTYYADSVKGRFTISRDNAKNTVYLQMHSLNPEETAVYYCAATYYWSGYPVKTTSDYWGQGTQITVSS,high polyreactivity
3,QVQLEESGGGLVQAGGSLRLSCAASGRIFYAYGIGWYRQAPVKERELVAAISSGDSTNYADSVKGRFTISRDNAKNTVYFQMNSLKPEDTAVYYCAKDGSPLQLTDPTHDYEYWGQGTQVTVSS,low polyreactivity
4,QVQLEESGGGLVQAGGSLRLSCAASGRIFYRNAMGWYRQAPGKERELVAAISSSAGSTYYADSVKGRFTISRDHAKNTVYLQMNSLKPEDTAVYYCAAGSGTFVTRYRYDYWGQGTQVTVSS,high polyreactivity
5,QVQLEESGGGLVQAGGSLRLSCAASGRIFYWYAMGWYRQAPGKERELVATISSAGTTYYADSVKGRFTISRDNAKNTVYLQMNSLKPEDTAVYYCAVPRVGLHGIGSDYWGQGTQVTVSS,high polyreactivity
6,QVQLEESGGGLVQAGGSLRLSCAASGRILRGYVMGWYRQAPGKERELVATITGRGGSTYYADSVKGRFTISRDNAKNTVYLQMNSLKPEDTAVYYCNKDGYPYFGRSEYWGQGTQVTVSS,low polyreactivity
7,QVQLEESGGGLVQAGGSLRLSCAASGRILYGYAKGSYRQAPGKERELVASITWSGGSTYADSVKGRFTFSRDNAKNTVYLQMNSLKTEDTSVYYCSTRRGQKWQWLTYGYWGQGTQVTVSS,low polyreactivity
8,QVQLEESGGGLVQAGGSLRLSCAASGRSFNHNAMGWYRQAPGKERELVAAINQSGSSTYYADSVKGRFTISRDNAKNTVYLQMNSLKREDTAVYYCAAVCNGVDYEYWGQGTQVTVSS,low polyreactivity
9,QVQLEESGGGLVQAGGSLRLSCAASGRTFGWNVMGWYRQAPGKERELVAAISGGGTSTYYADSVKGRFTISRDNAKNTVYLQMNSLNPEDTAVYYCNAYYPGSYYPRSGRYDYWGQGTQVTVSS,high polyreactivity
10,QVQLEESGGGLVQAGGSLRLSCAASGRTFKINAMGWYRQAPGKERELVAAIRRRGGSTYYADSVKGRFTISRDNAKNTVYLQMNSLKPEDTAVYYCAKTSWPYRVPSDSVAYDYWGQGTQVTVSS,low polyreactivity
11,QVQLEESGGGLVQAGGSLRLSCAASGRTFRFYAMGWYRQAPGKERELVAAISESGGNTYYADSVKGRFTISRDNAKNTVYLQMNSLKPEDTAVYYCAARGRWKYNYWGQGTQVTVSS,high polyreactivity
12,QVQLEESGGGLVQAGGSLRLSCAASGRTFSANTMGLYRKATGKERELVAAISKSGGSTYYADSVKGRLTISRDTAKYTVYLQMNSLNPEDTAVYYCAARTSGYWYSYGSWGQGTQVTVSS,high polyreactivity
13,QVQLEESGGGLVQAGGSLRLSCAASGRTFSVNPMRWYRQAPGKERELVAAISWSTGSTYYADSVKGRFTISRDNAKNTVYLQMNSLKPEDTAVYYCAKLYEYRRSRYRTYGYWGQGTQVTVSS,high polyreactivity
14,QVQLEESGGGLVQAGGSLRLSCAASGRTFYIYAMGWYRQAAGKERELVAAITWSGGTTYYADSVKGRFTISRDNAKNTVYLQMNSLKPEDTAVYDCNAGATYVKRRRGRKYDYWGQGTQVTVSS,low polyreactivity
15,QVQLEESGGGLVQAGGSLRLSCAASGRTLKVYAMGWYRTAPGKERELVAAINNGGSTNYADSVKGRFTISRDNAKNTVFLQMNSLKPEDTAVYYFNAVYYARFRKYTYYYWGQGTQVTVSS,high polyreactivity
16,QVQLEESGGGLVQAGGSLRLSCAASGRTSRVYAMGWYRQAPGKERELVAAITWRGGNTYYADSVKGRFTISRDNAKNTVYLQMNSLKPEDTAVYYCARDNGSPYHYYYWGQGTQVTVSS,high polyreactivity
17,QVQLEESGGGLVQAGGSLRLSCAASGSIFDYYAMGWYRQAPGTERELVATITSGVSTYYADSVKGRFTISRDNAKNTVYLQMNSLKPEETAVYYCARDYAKSQDVYKYDYWGQGTQVTVSS,low polyreactivity
18,QVQLEESGGGLVQAGGSLRLSCAASGSIFEGNGMGWYRPAPGKERELVAAITFRSGSTYYADSVKGRFTISRDNAKNTVYLQMNSLKPEDTAVYYCAADEYYKVSAYDFWGQGTQVTVSS,low polyreactivity
19,QVQLEESGGGLVQAGGSLRLSCAASGSIFFEYAMGWYRQAAGKERELVASINRGGGSTYYADSVKGRYTISRDNAKKNVYLQMNSLKPEDTAVYYCAAQWKYRQSYLDYYWGQGTQVTVSS,low polyreactivity
20,QVQLEESGGGLVQAGGSLRLSCAASGSIFLGNAMGWYRQAPGKERDLVAAISGGDSTNYADAVKGRFTISRDNAKNTGYLEMNCLKPEDTAVYYCNAVRTLYIWWPGYYYCGQGTQVTVSS,low polyreactivity
